Test: soluble on expression in E. coli; label from the status in PepcDB or PDB records

| Sequence | soluble on expression in E. coli |
| --- | --- |
| MNPKEQSSYLYEQYDDALGEQLKPITSQYVLQDLNKNSSKQKAQVVQKVDSEYVLRDLRNQADQNQNFSRDAPNRPFLTGTPVNAKEIRSQIESLDNAIVIPQIINGKVFFTTHGDADARTAVEGSVSNPNLNETNVGASKPEGVDLSKMKFTFAQLVALLGPSTCQRLEREFVKKNRLSDAEMSQLRTARESISELNLATGRSTDTLRTAQSVEPNLLSIRTANSLEPNLLSVYSARSPGVFTKKEGMLTAQSPEPNLLSVRTANSLEPNLLSVKPAKELTTISNLKAQSPGLLTAQSAEPNLLSTRTARSSSNTSLIDTESKDVQTCIEIQSPTTGVLTAQSIATPSGSCQSVFTAKEIESIRSSQDVLTAVEILTDMSRSSQDVRTALEISE | not soluble |
| MNQAIGGSFDDVIGNHQADTAMIVQISADRKEINLVSIPRDSLVDVPQCETSKGTIPAQYNVMFNSIFAGAYKTGGDLSSAASCTLNAVNSLTGLNIQNFIVVDFAGLVKMIDSVGGVDLCIPQNVNDPYTGLNLDKGMHHLDGVAATQYARIRHGIGDGSDTSRTTRQQYLIKQLMSEALSKNLFTDTAQLYQLAKSALKSLNISQGMADTAALAGLAMSLKNFTMTNLQTQTVPVVPAPSDPNRSVWTDEADNLWEKMRAGKPIFDTADSNSGGSSDTSSDNSASSDDSGTTDSNQSDTTAETPDPVTGLITKSDGTLVDPSTGGTVDPDDGSIHDATTGQYIGLADRYLNATVCAVPAKNLEHHHHHH | soluble |
| MNQFYKRHFLRLLDFTPAEIIALLDLATELKKDKKSGCEQQKLVGKNIALIFEKDSTRTRCSFEVAAYDQGARVTYLGPGGSQIGHKESIKDTARVLGRMYDGIQYRGYGQRVVETLAEFAGVPVWNGLTDEFHPTQLLADLLTMREHLPNKSLNKMTLAYLGDTRNNMGNSLLEAAALVGMDLRLVAPKACWPEEAFVISCQALAQKTGGKITLTEDIAEGVNGADFLYTDVWVSMGEPKEVWQERINLLKPYQVNMRVLTLTGNPQVKFLHCLPAFHDDQTTIGKQMAEQYDLPGGMEVTEEVFESAHSIVFDQAENRLHTIKAVMVATMSKI | not soluble |
| MNQINIEIAYAFPERYYLKSFQVDEGITVQTAITQSGILSQFPEIDLSTNKIGIFSRPIKLTDVLKEGDRIEIYRPLLADPKEIRRKRAAEQAAAKDKEKGA | soluble |
| MNQPDISTLVQRIEQLELNQSRLRILLSHAPEKHKAFDKACYVANLSFEQEAHVRQTILDFLDSDKEDINELLSSIEAIVRYTVDAKSLISGFKMRGTAPDRWKQIDPHNEC | not soluble |
| MNQVTTYLWETHLPGGSHWSGVVRRGTTLRLTDVSGGANAAVLFYNLEEKLERYNMADTLKTQHTFCLTKGHACHSDMGRIFCCITEDTAGWHDTVCGLSDAELIQQKYGTGRYQELRNDMYRNGLDGMLVELGKWGLGRRDVVSNINFFSKVTANSVGELQFHVSHSKAGDHVDLAFAMDTLVVLSAAPHPLDPAATYRPGAVNLAVFPSTPAVTGACAHIAENARGLENTRRLYAYGGVKLEHHHHHH | soluble |
| MNRESFAAGERLVSPAYVRQGCEARRSHEHLIRLLLEKGKCPENGWDESTLELFLHELAIMDSNNFLGNCGVGEREGRVASALVARRHYRFIHGIGRSGDISAVQPKAAGSSLLNKITNSLVLDIIKLAGVHTVANCFVVPMATGMSLTLCFLTLRHKRPKAKYIIWPRIDQKSCFKSMITAGFEPVVIENVLEGDELRTDLKAVEAKVQELGPDCILCIHSTTSCFAPRVPDRLEELAVICANYDIPHIVNNAYGVQSSKCMHLIQQGARVGRIDAFVQSLDKNFMVPVGGAIIAGFNDSFIQEISKMYPGRASASPSLDVLITLLSLGSNGYKKLLKERKEMFSYLSNQIKKLSEAYNERLLHTPHNPISLAMTLKTLDEHRDKAVTQLGSMLFTRQVSGARVVPLGSMQTVSGYTFRGFMSHTNNYPCAYLNAASAIGMKMQDVDLFIKRLDRCLKAVRKERSKESDDNYDKTEDVDIEEMALKLDNVLLDTYQDASS | soluble |
| MNRHLIHRRDILDTLVADLQAQQPDHIAVTGDLVNIALVNEFAPARQWLESVGPADRVSLVPGNHDAYVRSTAHRFAETFPDYISGDDATPGFPYLRRREAIAIIGVSSAVPTAPLRATGWLGAPQRAALEALLQSLAGERVFKVLLIHHPLQSRSRHKRLTDAADLIALLQRHPVDLVLHGHDHVHATVRIDTPFGAIPVVGVPSASAMNDRHRPSAAYNLFKISEGNLEHHHHHH | soluble |
| MNRKGNMKRKTLKNIVEYDGIGLHKGEIIKMKLIPAKSGGIIFRMVNMPEGKNEILLDYRNIFDLTRGTNLKNEHGAMVFTIEHFLSALYVLGITDLVIELNGNELPICDGSAIKFLDLFQESGIVELDEYVEEIIVKEPIFLSKGDKHVIALPYPDGYKLTYAIRFEHTFLKSQLAEFEITEKNYRKEIASARTFGFDYEVEYLKQNNLALGGTLENAIVIKKDGVLNPDGLRFDDEFVRHKMLDIIGDLKILNRPIRAHIIAIKAGHLIDIEFAKILDNIKLEHHHHHH | soluble |
| MNRLPRIEQYGLIGDTQTSAHVCDDGSIDWLCLPRFDSPAVFASLLGTQKHGSWQISPAPSTGRSGPEKVTERRYRGDSLVLESVWRTPTGSVRVLDFMPPRDGTPQVIRIVEGLTGDVEMLSAMRPRPGYLEHHHHHH | not soluble |
| MNRLPTCLLAATLFLGSASLYAEDPACARVRLADPGWSDIAVTNATAAFLLESLGYQVKIDTLSVPIIYGGLRDGQVDAFLGGWMPAHQDYHDKFVASGQVERLGRNLDGTRFTLAVPRYVWDAGVHRFEDLAAQGQRFNRKLYGIGSGAPANQSIQKMIDANQFGLGDWKLVESSEQAMLAELGRAEKRQRWLVFLGWTPHPMNIRHDLRYLEGGEQYFGDRGQVYTLARKGYAAQCPNPARLLANLRFDLDMENRLMSDALEGTATPASATRAWLKANPRVLEAWLQGVTSRDGGDALAAVRGQP | not soluble |
| MNRMEYNPIKKVVSGNYAAAYAALHARVQVVAAYPITPQTSIIEKIAEFIANGEADIQYIPVESEHSAMAACIGASATGARVFTATSAQGLALMHEMLHWAAGSRLPIVMVNVNRAMAPPWSVWDDQTDSLSQRDTGWMQFYAENNQEVYDGVLMAYKVAETVNIPTMIIESAFILSHTYEVVNMIPQELVDEFLPPRKPLYTLTDFENPIAVGALATPADYYEFRYKIAKAHEEAKKVIKSVGKEFGERFGRDYSKMIETGYIEDADFVFMGMGSLMGTVKEAVDLLRKEGYKVGYAKVRWFRPFPKEELLEIAESVKGIAVLDRNFSFGQEGILFTEAKGALYNTGVRPIMKDYIVGLGGRDFTVRDVKAIAEDMKKVVESGKLDKEIEWYHLKR | soluble |
| MNRPHSATGDRPLALVDEHAHAWSPKTARARFRKGLTGPTAGVAAGHTQANLISVPADWAYDMLLFCTRNPQPCPVLDVTDAGSWTTVLADGADLRTDLPRYRVWRDGELVDEPSDVREHWRDDLVTFLIGCSFTFEWALAAAGVPIRHVEQGRNVPMYVTSRACRPAGRLRGPMVVSMRPVPPAHLSAAIHESSLLPAVHGSPVHCGDPSALGIDDLDRPDFGEAVYREPDDIPVFWACGVTPQAAVMASRPPFALTHAPGQMFLTDARDEQYRVALEHHHHHH | soluble |
| MNRQIPKVPDAIELEYDLDEPPQKVWRAISIPAFREHWLPKEALAQPEAIKVSPGREVCYRLREDTPPFLESTVTFQIASNDRGGTSLRIIHDLPAIKSGRMTKAAANHNGSPIKLAALEHHHHHH | not soluble |
| MNRVYVGTVSAVTDIGVFVNLNKRLRGLIHRRNLGNNRFSEDEEILVQVSGIGLSGEIDLKPVKMDGYKVVEISKEVGRVEIAELENLEHHHHHH | not soluble |
| MNSAPLLVDPSTQSATVVAETQPFGDRCMLESLIRRPFCMNPQLQTHPYDRQPTTAPRLQMMPRRDQTQNPVIAELMSTVTRVRDRKRQRDEEAMYPRRSVGLQTDTEDVSEVLDGGTRISDMKRVRREELLDQSSLDGITFETSGTNTSDEPHSQIITSNSSSLPSTSASSSSDRPRAMRSNQEMRQARRARRQRQTQHESQRMQLEHRLQQITGPVPGSEHNCMTGCPHLHQQQQQQHQQPLLHIQLNPIPPQPQTGPNSVSPTIAPGAMLRAHPLASTFPYFSLPLTQNYPVMMVLPMAAVAQQHAAAAAAVVAVAAAAAVPQPPPPPPQPTLHAPVPIRPQNNPYNLYAFRNSPINVHAPGYVGEYVELFRSQQFLFPTSERYGIDRHHMFGGLDLDLPVGASKVEIDTFTIPTVYAKKTDGEEDEDTCTVCLSSFEDGESIQKLRCNHVFHPECIYKWLDINKRCPMCREEIDRPESLRTQPGL | not soluble |
| MNSCWAKGKLMCEGRPASGVKVKLMESDNSFLPGFLDRDDKMASGKADSNGEFNLSGSTKEITGIEPYLAVFHDCKDGITPCQRVLRINIPKSYANWGSSAEKTFNAGNLELAGKFPGETRSCFN | not soluble |
| MNSITVRNATFTWARSDPPTLNGITFSIPEGALVAVVGQVGCGKSSLLSALLAEMDKVEGHVAIKGSVAYVPQQAWIQNDSLRENILFGCQLEEPYYRSVIQACALLPDLEILPSGDRTEIGEKGVNLSGGQKQRVSLARAVYSNADIYLFDDPLSAVDAHVGKHIFENVIGPKGMLKNKTRILVTHSMSYLPQVDVIIVMSGGKISEMGSYQELLARDGAFAEFLRTYASHHHHHH | soluble |
| MNSPDIALIKTYLLTLQDNICAALAQADGHAEFTEECWVREEGGGGRSRVLVNGAVFEQAGVNFSHVSGAMLPASATAHRPELAGRSFQALGVSLVIHPLNPYLPTSHANVRFFIAEKPGEDAVWWFGGGFDLTPYYGFEEDAIHWHQVAHSLCQPFGEQIYPRYKKWCDDYFYIKHRQEARGIGGLFFDDLNSPDFMTCFNFTQAVGDGFLAAYMPIVARRKALGWGDRERQFQLYRRGRYVEFNLVWDRGTLFGLQTGGRTESILMSLPPLVRWEYNYQPEADSAEAALYRDFLPVKDWLAIKGETH | not soluble |
| MNSPGVSANFFIPLSFDATSLIKYKLSDDLLARVAASGSLRSSSCRSAVWRLVLRCLPYETSDWEISLSRSRNLYRAHKENHLIDPHDTKFSQDPEFNNPLASIEQNPWNTFFEDNDLRDIIGKDVSRTFPEIEFFQNTSIRQMMSDILLVYAKEHPFVNYRQGMHEILAPLIFVIYSDNEAFQHAKENDELKMLTVEEEDILNCLFCKEYLEQDSYNLFCSVMLEVSRWYEEPTVTESPKRPIPKEPYMRVQDSAPASRLMEDLIDIGNLLHEIDPTLAKHLSTLDIPPQLYGIRWLRLLFGRELPLHDLLFLWDVLLIDRPIAPLAKCMFVSLLVQIRHLLLSSDYGGCLQYLMRYPPIADIDSFVKLARHYRNPKKNAKPMIKSNNFSHITVAGSSHPNRTQRPQRPPAAVNSKNDGAESPSTILALAPVFQKVKNTIRDRSNTVSGPSSPRRSNEPLREPLRTPQKKDNWANEVQMMEEQVSTLQTRLNEQDMMCCQVSKALEIYAEDVRNAKSSELCAVLSQNLLELSKTLMSIKTVPVGTSPPKHSRNGISDIQPKPRDSQPIRQHNEMVDMATKRPPL | not soluble |
| MNSQTTKDIPCFRSYLPDALRLRFEDKLTIRAIAQRLGLSHSTIHTLFQRFLASGIAWPLPDSVSFAQLDAILYANRKKELTEPQIREGSWRKERRTSYSREFKVRLAKQALQPGAVVARIAREHDINDNLLFKWKSQYEDGLLSDDDIQECMPVPVALTDTPEPTRPVTNPFWRNKHDERPEGAPGNVPRCELHLKSGVVKLFDPLTPELLRALIREMKGGIRLEHHHHHH | soluble |
| MNSRGLILTLGVVIAVAFAQQDSEVEREMMKRKSAYMRFGRSDGGNPMEMEKRKSAYMRFGKRSSGGDEQELVGGDDIDMEKRKSAYMRFGKRSGPQEDDMPMEKRKSAYMRFGKRSSDMEVIGNEGVDGDAHDLFKRKSAYMRFGKRSMGEEEDHDMMKRKSAYMRFGR | not soluble |
